Where two headings read alike, the source gives them in different places. One block for each binder: values may come before it.
Assays:
human IL-18 [1] = target: T1, human IL-18 (human, UniProt Q14116 37-193); test: cell-based or functional assay
human IL-18 [2] = target: T1, human IL-18; test: SPR (Biacore)
human IL-18 [3] = target: T1, human IL-18; test: SPR (Biacore); remark: listed apart in the source
human IL-18 [4] = target: T1, human IL-18; test: SPR (Biacore); remark: listed apart in the source
human IL-18 [5] = target: T1, human IL-18; test: cell-based or functional assay; remark: listed apart in the source
human IL-18 [6] = target: T1, human IL-18; test: cell-based or functional assay; remark: listed apart in the source
human IL-12 [7] = target: T2, human IL-12 (human, UniProt P29459 23-219; P29460 23-328); test: SPR (Biacore)
T2 construct: also called hIL-12
T2 sequence (looked up) 1: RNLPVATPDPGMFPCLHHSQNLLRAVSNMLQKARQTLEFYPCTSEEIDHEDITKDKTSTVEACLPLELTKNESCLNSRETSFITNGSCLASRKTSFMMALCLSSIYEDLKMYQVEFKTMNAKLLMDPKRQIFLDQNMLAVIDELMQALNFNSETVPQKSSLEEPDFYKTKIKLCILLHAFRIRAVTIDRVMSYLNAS
T2 sequence (looked up) 2: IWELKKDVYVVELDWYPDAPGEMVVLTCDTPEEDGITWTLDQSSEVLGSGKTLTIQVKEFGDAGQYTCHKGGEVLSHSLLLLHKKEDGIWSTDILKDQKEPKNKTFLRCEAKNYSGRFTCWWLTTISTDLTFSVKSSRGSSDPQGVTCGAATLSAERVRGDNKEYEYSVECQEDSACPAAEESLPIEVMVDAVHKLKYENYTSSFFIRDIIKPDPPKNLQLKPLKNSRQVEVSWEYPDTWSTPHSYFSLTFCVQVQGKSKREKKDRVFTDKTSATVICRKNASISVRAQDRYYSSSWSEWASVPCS

human IL-12 [8] = target: T2, human IL-12; test: cell-based or functional assay
human IL-12 [9] = target: T2, human IL-12; test: cell-based or functional assay; remark: listed apart in the source
human IL-12 [10] = target: T2, human IL-12; test: SPR (Biacore); remark: listed apart in the source
human IL-12 [11] = target: T2, human IL-12; test: SPR (Biacore); remark: listed apart in the source
human IL-12 [12] = target: T2, human IL-12; test: cell-based or functional assay; remark: listed apart in the source
mouse IL-1β = mouse IL-1β (mouse, UniProt P10749 118-269); test: cell-based or functional assay
mouse IL-1α = target: T3, mouse IL-1α (mouse, UniProt P01582 115-270); test: cell-based or functional assay
T3 sequence (looked up): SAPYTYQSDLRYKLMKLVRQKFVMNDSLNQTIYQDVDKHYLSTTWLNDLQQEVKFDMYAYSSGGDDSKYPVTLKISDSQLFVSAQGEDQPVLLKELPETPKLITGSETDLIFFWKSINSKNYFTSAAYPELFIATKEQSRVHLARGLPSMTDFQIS

mouse IL-1β, sequence (P10749 118-269 limits assumed): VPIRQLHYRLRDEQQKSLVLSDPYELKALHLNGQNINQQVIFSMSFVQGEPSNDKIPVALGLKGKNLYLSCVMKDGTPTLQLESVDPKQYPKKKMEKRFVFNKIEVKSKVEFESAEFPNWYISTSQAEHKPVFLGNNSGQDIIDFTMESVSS

B2: anti-IL-12 mAb clone 1D4.1 (antibody, V domains shown)
VH: EVTLRESGPALVKPTQTLTLTCTFSGFSLSKSVMGVSWIRQPPGKALEWLAHIYWDDDKYYNPSLKSRLTISKDTSKNQVVLTMTNMDPVDTATYYCARRGIRSAMDYWGQGTTVTVSS
VL: DIVMTQSPDSLAVSLGERATINCKASQSVSNDVAWYQQKPGQPPKLLIYYASNRYTGVPDRFSGSGSGTDFTLTISSLQAEDVAVYYCQQDYNSPWTFGGGTKVEIKR
notes: Parent anti-IL-12 mAb
Kd (human IL-12 [7]): 0.12 nM
Potency (IC50, M), PBMC assay (IL-12) (human IL-12 [8]): 4.18e-10 M

B4: mIL-1α/β DVD-Ig (bispecific antibody, mouse IgG2a, kappa)
heavy: EVQLQQSGPELVKPGTSVKMSCKTSGYTFTSYVMHWVKQKPGQGLEWIGYIIPYNDNTKYNEKFKGKATLTSDKSSSTAYMELSSLTSEDSAVYYCARRNEYYGSSFFDYWGQGTTLTVSSAKTTAPSVYPLAPQVILKESGPGILQPSQTLSLTCSFSGFSLSTYGTAVNWIRQPSGKGLEWLAQIGSDDRKLYNPFLKSRITLSEDTSNSQVFLKITSVDTEDSATYYCANGVMEYWGLGTSVTVSSAKTTAPSVYPLAPVCGDTTGSSVTLGCLVKGYFPEPVTLTWNSGSLSSGVHTFPAVLQSDLYTLSSSVTVTSSTWPSQSITCNVAHPASSTKVDKKIEPRGPTIKPCPPCKCPAPNLLGGPSVFIFPPKIKDVLMISLSPIVTCVVVDVSEDDPDVQISWFVNNVEVHTAQTQTHREDYNSTLRVVSALPIQHQDWMSGKEFKCKVNNKDLPAPIERTISKPKGSVRAPQVYVLPPPEEEMTKKQVTLTCMVTDFMPEDIYVEWTNNGKTELNYKNTEPVLDSDGSYFMYSKLRVEKKNWVERNSYSCSVVHEGLHNHHTTKSFSRTPGK
light: DIQMTQSPASLSASVGETVTITCRGSGILHNYLVWYQQKQGKSPQLLVYSAKILADGVPSRFSGSGSGTQYSLKINSLQPEDFGSYYCQHFWSTPFTFGSGTKLEIKRADAAPTVSIFPPSIVMTQTPKFLLVSAGDRVTITCKASQSVNHDVAWYQQMPGQSPKLLIYFASNRYTGVPDRFTGSGYGTDFTFTISTVQAEDLAVYFCQQDYSSPYTFGGGTKLEIKRADAAPTVSIFPPSSEQLTSGGASVVCFLNNFYPKDINVKWKIDGSERQNGVLNSWTDQDSKDSTYSMSSTLTLTKDEYERHNSYTCEATHKTSTSPIVKSFNRNEC
IC50 (M), in vitro potency (assay not described) (mouse IL-1β): 8e-10 M
IC50 (M), in vitro potency (assay not described) (mouse IL-1α): 2e-09 M

Further lines, results first:

Potency (IC50), KG-1 Assay (human IL-18 [1]): 0.3 nM
Kd (human IL-18 [2]): 0.137 nM
Kd (human IL-18 [3]): 0.137 nM
Kd (human IL-18 [4]): 0.191 nM
IC50 (M), KG-1 bioassay (IFN-γ production) (human IL-18 [5]): 3e-10 M
Potency (IC50, M), KG-1 bioassay (IL-18) (human IL-18 [6]): 6.87e-11 M
B1: ABT325 (fully human mAb against human IL-18) (antibody, V domains shown)
VH: EVQLVQSGTEVKKPGESLKISCKGSGYTVTSYWIGWVRQMPGKGLEWMGFIYPGDSETRYSPTFQGQVTISADKSFNTAFLQWSSLKASDTAMYYCARVGSGWYPYTFDIWGQGTMVTVSS
VL: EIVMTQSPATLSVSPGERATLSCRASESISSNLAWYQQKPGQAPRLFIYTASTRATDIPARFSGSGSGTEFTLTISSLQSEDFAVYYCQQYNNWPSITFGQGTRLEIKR
notes: Fully human mAb with a Vκ

Potency (IC50), PHA-Blast Assay (human IL-12 [9]): 0.005 nM
Kd (human IL-12 [10]): 0.0647 nM
Kd (human IL-12 [11]): 0.065 nM
IC50 (M), IL-12-induced IFN-γ production by PHA blast cells (PBMC assay) (human IL-12 [12]): 5e-12 M
B3: ABT874 (fully human mAb against human IL-12p40) (antibody, V domains shown)
VH: QVQLVESGGGVVQPGRSLRLSCAASGFTFSSYGMHWVRQAPGKGLEWVAFIRYDGSNKYYADSVKGRFTISRDNSKNTLYLQMNSLRAEDTAVYYCKTHGSHDNWGQGTMVTVSS
VL: QSVLTQPPSVSGAPGQRVTISCSGSRSNIGSNTVKWYQQLPGTAPKLLIYYNDQRPSGVPDRFSGSKSGTSASLAITGLQAEDEADYYCQSYDRYTHPALLFGTGTKVTVLG
notes: Fully human mAb with a Vλ

From patent US20140154256A1 (published 2014)
